Test results taken from patent US20030129638A1, “Reagents for antagonizing the protein-protein interaction between Raf-1 and apoptosis signal-regulating kinase and uses therefor” (priority 2001, published 2003).

How the values were obtained:
[1] = test system: ASK1-induced apoptosis in HeLa cells; assay: β-gal cell morphology-based apoptosis assay: effect of MEK inhibition on Raf-1 inhibition of ASK1-induced cell death; design: species or system human; settings: PD98059 60 μM for 18 h
Protocol: FIG. 2B is a graphic summary of the effect of MEK inhibition by PD98059 on Raf-1 function. Six hours after transfection as in A, HeLa cells were treated with PD98059 (60 μM) or vehicle (DMSO) for 18 h before being stained with 5-bromo-4-chloro-3-indolyl-D-galactopyranoside and scored for apoptosis in a blind fashion. Specific apoptosis is derived by subtracting the level of apoptosis seen in pcDNA3-transfected cells. At least 500 cells were scored for each sample. Results shown are representative of three independent experiments.
For the nuclear morphology assays (Zhang et al. (1999) Proc. Natl. Acad. Sci. USA 96:8511-8515), 2×10^5 HeLa cells were cultured in 35-mm dishes containing glass coverslips. […] Twenty-four hours later, cells on the glass coverslips were washed, fixed (0.5% glutaraldehyde/2% formaldehyde in PBS), stained with 4′,6-diamidino-2-phenylindole (DAPI) in Vectashield mounting medium (Vector Laboratories), and visualized by using a fluorescence microscope as described (Zhang et al. (1999) Proc. Natl. Acad. Sci. USA, 96:8511-8515). Transfected cells with fragmented nuclei were scored for apoptosis in a blind fashion. […] Twenty-four hours after transfection, cells were fixed, stained with 5-bromo-4-chloro-3-indolyl-β-D-galactopyranoside, and scored for apoptosis as described (Chang et al. (1998) Science 281:1860-1863). […]

ERK1/2 activation = assay: Western blot of ERK1/2 activation in HeLa cell lysates; type: cell-based, human; settings: HeLa cells, 60 μM
Protocol: Cell lysates from HeLa cells treated with 60 μM PD98059 or vehicle were probed by Western blotting with either an ERK1/2 activation-specific antibody (Upper; Cell Signaling Technology) or pan-ERK1/2 antibody (Lower; Cell Signaling Technology).
To test the hypothesis that Raf-1 regulates ASK1-induced apoptosis through the MEK-ERK pathway, we used two widely used MEK antagonists, PD98059 and U0126 (Dudley et al. (1995) Proc. Natl. Acad. Sci. USA 92:7686-7689; Favata et al. (1998) J. Biol. Chem. 273:18623-18632). […] To confirm the observations with PD98059 and U0126, we used a dominant negative mutant of MEK1, MEK1dn, to interfere with MEK signaling (Sugimoto et al. (1998) EMBO J. 17:1717-1727).

[2] = target: T1, protein-protein interaction between Raf-1 and ASK1 (Homo sapiens, UniProt P04049); assay: Coimmunoprecipitation with anti-Raf-1 antibody and Western blot for ASK1 in transfectants expressing ASK1 N-terminal domain fusion peptides; type: cell-based; settings: fusion peptide expressed in cells, FIG. 7
T1 construct: expressed in transfected cells; host or cells: COS7
Protocol: FIG. 7 is a Western blot analysis of Raf-1 immunoprecipitates obtained from transfectants comprising N-terminal domain truncation peptides.
(§1) Forty-eight hours after transfection, 4×10^5 COS7 cells were lysed in 300 μl of lysis buffer (0.2% Nonidet P-40/10 mM Hepes, pH 7.4/150 mM NaCl/5 mM NaF/2 mM Na3VO4/5 mM Na4P2O7/10 μg/ml aprotonin/10 μg/ml leupeptin/1 mM phenylmethylsulfonyl fluoride). Cell extracts were clarified by centrifugation and used for immunoprecipitation with various antibodies and protein G-Sepharose (Amersham Pharmacia). Immunocomplexes were washed four times with lysis buffer containing 1% Nonidet P-40 or RIPA buffer (1% Nonidet P-40/0.5% sodium deoxycholate/0.1% SDS/137 mM NaCl/20 mM Tris.HCl, pH 7.5) and resolved on SDS/PAGE (12.5%) for Western blotting. The enzyme-linked immunoblotting procedures were performed essentially as described (Zhang et al. (1999) Proc. Natl. Acad. Sci. USA 96:8511-8515). Corresponding secondary antibodies were used against each primary antibody: horseradish peroxidase-conjugated goat anti-mouse IgG for monoclonal antibodies and horseradish peroxidase-conjugated goat anti-rabbit IgG for polyclonal antibodies (Santa Cruz Biotechnology). Cross-reacting materials were visualized by using the ECL detection reagents (Amersham Pharmacia).
Coimmunoprecipitation experiments were performed using anti-Raf-1 antibody (RI9120, Transduction Laboratories) as described. […] Raf-1 immunoprecipitates were analyzed with antibodies specific for ASK1 and Raf-1 (upper panel). HA-ASK1 protein present in Raf-1 immunoprecipitates was probed with anti-ASK1 antibody H-300 (1:2000, Santa Cruz;). […] The effect of this disruption is manifested as the absence of ASK1 protein in the Raf-1 immunoprecipitates.

[3] = test system: Raf-1 prosurvival effects on ASK1-induced cell death in COS7 cells; assay: DNA content-based flow cytometric apoptosis assay (sub-G0 fraction) in transfected COS7 cells; type: cell-based; settings: COS7 cells cotransfected with HA-ASK1, Flag-Raf-1 and ASK1 truncation construct (0.3 μg), FIG. 8
Protocol: FIG. 8 provides a graphic representation of data obtained from a DNA content-based flow cytometric apoptosis assay. The fraction of transfected cells with sub-G0 DNA content in each sample was quantified. The data presented are representative of three independent experiments.
The DNA content-based apoptosis assay was performed with a fluorescence-activated cell sorter as described (Spector et al. (1997) Cells: A Laboratory Manual (Cold Spring Harbor Lab. Press, Plainview, N.Y.). Briefly, COS7 cells (2×10^5) were cotransfected with pEGFP-F (0.4 μg; CLONTECH) encoding a farnesylated eGFP and test plasmids (1.6 μg total). Twenty-four hours after transfection, total cells were trypsinized, resuspended in PBS, fixed in ice-cold ethanol followed by overnight incubation, treated with RNase A (Sigma-Aldrich), and stained with propidium iodide (Sigma-Aldrich). Samples were analyzed with a FACSort flow cytometer (Becton Dickinson). The DNA content of transfected cells was determined by using WINMDI 2.8 software (Trotter, Scripps Research Institute, La Jolla, Calif.).
A DNA content-based flow cytometric apoptosis assay was performed to evaluate the effects of the ASK1 N-terminal domain truncation peptides on the prosurvival effects of Raf-1. COS7 cells were transfected with indicated plasmids encoding HA-ASK1 (1.0 μg), Flag-Raf-1 (0.3 μg) or ASK1 truncation constructs (0.3 μg) as indicated along with an EGFP-F expression vector (0.4 μg) as described.

Raf-1 = Raf-1 (Homo sapiens, UniProt P04049); assay: Association of ASK1 N-terminal domain truncation peptides with Raf-1; type: binding; settings: N-terminal domain fusion peptide
Protocol: FIG. 6A provides a schematic representation of the ASK1 N-terminal domain truncation proteins used herein. Association of ASK1 mutants with Raf-1 is summarized. Positive interaction is represented by (+).
as §1
FIG. 6A provides a schematic representation of the ASK1 N-terminal domain truncation peptides used herein. Various truncation mutants of the ASK1 N-terminal domain were generated as shown and expressed as fusion proteins with a (His)6-tag at the N-terminus and an HA-tag at the C-terminus, except ASK-N69-163 which has the N-terminal (His)6-tag but a GST-tag at the C-terminus. Association of ASK1 mutants with Raf-1 is summarized. Positive interaction is represented by (+).

Row | Molecule | Effect on the ability of Raf-1 to inhibit ASK1-induced cell death [1] | Activation of ERK1/2 (ERK1/2 activation) | Disruption of the Raf-1/ASK1 interaction (ASK1 in Raf-1 immunoprecipitates) [2] | Effect on Raf-1 prosurvival effects on ASK1-induced cell death [3] | Binding to Raf-1 (Raf-1)
1 | COc1cccc(-c2cc(=O)c3ccccc3o2)c1N [PD98059] | did not decrease the ability of Raf-1 to inhibit ASK1-induced cell death | diminished the activation of ERK1/2 |  |  | 
2 | SEQ ID NO:3: amino acid residues 6 to 230 of full-length human ASK1 (SEQ ID NO:1), expressed as a (His)6/HA-tagged fusion peptide (protein, UniProt Q99683 6-230, looked up, fragment, His6/HA tag) DEGITFSVPPFAPSGFCTIPEGGICRRGGAAAVGEGEEHQLPPPPPGSFWNVESAAAPGIGCPAATSSSSATRGRGSSVGGGSRRTTVAYVINEASQGQLVVAESEALQSLREACETVGATLETLHFGKLDFGETTVLDRFYNADIAVVEMSDAFRQPSLFYHLGVRESFSMANNIILYCDTNSDSLQSLKEIICQKNTMCTGNYTFVPYMITPHNKVYCCDSSF |  |  | disrupts the protein-protein interaction between Raf-1 and ASK1 | eliminates Raf-1 prosurvival effects on ASK1-induced cell death | ability to bind Raf-1
3 | SEQ ID NO:7: amino acid residues 6 to 163 of the full-length human ASK1 sequence set forth in SEQ ID NO:1 (protein, UniProt Q99683 6-163, looked up, fragment) DEGITFSVPPFAPSGFCTIPEGGICRRGGAAAVGEGEEHQLPPPPPGSFWNVESAAAPGIGCPAATSSSSATRGRGSSVGGGSRRTTVAYVINEASQGQLVVAESEALQSLREACETVGATLETLHFGKLDFGETTVLDRFYNADIAVVEMSDAFRQP |  |  | disrupts the protein-protein interaction between Raf-1 and ASK1 | eliminates Raf-1 prosurvival effects on ASK1-induced cell death | ability to bind Raf-1
4 | SEQ ID NO:8: amino acid residues 69 to 230 of the full-length human ASK1 sequence set forth in SEQ ID NO:1 (protein, UniProt Q99683 69-230, looked up, fragment) AATSSSSATRGRGSSVGGGSRRTTVAYVINEASQGQLVVAESEALQSLREACETVGATLETLHFGKLDFGETTVLDRFYNADIAVVEMSDAFRQPSLFYHLGVRESFSMANNIILYCDTNSDSLQSLKEIICQKNTMCTGNYTFVPYMITPHNKVYCCDSSF |  |  | disrupts the protein-protein interaction between Raf-1 and ASK1 | eliminates Raf-1 prosurvival effects on ASK1-induced cell death | ability to bind Raf-1
